This note sets out measurements from publication PMC4148199, “Multiple Regulation of Rad51-Mediated Homologous Recombination by Fission Yeast Fbh1” (PLoS Genetics, 2014).

For data set [1], the target named is T1, complex of 3FLAG6His-Fbh1 and 6His-Skp1 (S. pombe, UniProt Q9USU3 1-878; Q9Y709 1-161).
T1 construct: Fbh1 (F-box DNA helicase-1), Schizosaccharomyces pombe; Skp1, Schizosaccharomyces pombe; also called FLAG-His-tagged Fbh1-Skp1; Fbh1-Skp1 complex; source: insect cells, baculovirus co-infection, purified as a complex
T1 sequence (looked up) 1: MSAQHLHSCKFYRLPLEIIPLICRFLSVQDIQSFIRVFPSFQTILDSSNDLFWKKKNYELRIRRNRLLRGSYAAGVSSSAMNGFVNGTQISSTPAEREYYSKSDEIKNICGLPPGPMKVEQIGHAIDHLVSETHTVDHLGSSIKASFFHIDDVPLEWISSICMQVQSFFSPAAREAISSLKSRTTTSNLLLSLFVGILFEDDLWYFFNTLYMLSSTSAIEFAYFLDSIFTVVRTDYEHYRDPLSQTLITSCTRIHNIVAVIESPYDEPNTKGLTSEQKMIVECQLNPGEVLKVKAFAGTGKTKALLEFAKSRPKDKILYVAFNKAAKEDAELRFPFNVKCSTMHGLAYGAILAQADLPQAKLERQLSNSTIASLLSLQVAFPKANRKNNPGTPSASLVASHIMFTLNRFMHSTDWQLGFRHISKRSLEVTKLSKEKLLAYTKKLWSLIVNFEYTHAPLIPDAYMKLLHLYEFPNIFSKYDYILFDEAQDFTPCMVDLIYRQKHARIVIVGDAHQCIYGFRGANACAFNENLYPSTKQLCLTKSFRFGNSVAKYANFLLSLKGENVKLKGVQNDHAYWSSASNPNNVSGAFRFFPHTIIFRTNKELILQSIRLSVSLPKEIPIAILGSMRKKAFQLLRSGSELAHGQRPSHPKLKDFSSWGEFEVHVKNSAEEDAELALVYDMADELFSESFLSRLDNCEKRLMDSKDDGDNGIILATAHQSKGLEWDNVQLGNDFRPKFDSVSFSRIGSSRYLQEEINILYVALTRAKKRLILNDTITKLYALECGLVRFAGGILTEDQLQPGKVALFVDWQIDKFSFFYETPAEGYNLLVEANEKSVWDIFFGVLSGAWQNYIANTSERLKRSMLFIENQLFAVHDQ
T1 sequence (looked up) 2: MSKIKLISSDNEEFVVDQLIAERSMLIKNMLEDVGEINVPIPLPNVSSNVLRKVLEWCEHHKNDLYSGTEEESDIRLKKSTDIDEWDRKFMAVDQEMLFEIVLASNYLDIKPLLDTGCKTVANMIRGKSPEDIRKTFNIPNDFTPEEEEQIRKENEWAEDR
Description: co-IP; in vitro; 0.5 µg of each purified protein mixed in 10 µl 25 mM Tris-OAc pH 7.5, 100 mM KCl, 0.5% NP40, 3 mM Mg-acetate, 10 min room temperature then 20 min 4°C; M2 anti-FLAG antibody and Dynabeads Protein G; western blot with anti-Rad51, anti-Sfr1 or anti-M2. The conditions noted are these: both partners purified. On the technique in general: A western blot detects proteins with antibodies after separation by electrophoresis.

Data set [2] deals with T2, Fbh1;Skp1 (Schizosaccharomyces …, UniProt Q9USU3;Q9Y709 1-878;1-161, |).
T2 sequence 1: T1 sequence (looked up) 1
T2 sequence 2: T1 sequence (looked up) 2
Kind of data set: EMSA; 3 mM Mg-acetate; preferred substrate; EMSA: 25 mM Tris-acetate pH 8.0, 1 mM DTT, 3 mM Mg-acetate, 5% glycerol, 100 mM KCl, 10 nM DNA, 30 C 10 min; ssDNA beads: 30 mM Tris-HCl pH 7.5, 1 mM DTT, 100 mM NaCl, 3.5 mM MgCl2, 5% glycerol, 0.25% Tween 20, ATP regeneration system, 37 C. The conditions noted are these: protein: recombinant;recombinant; tags: 6His;6His; copies: 1;1; label: 32P. Background: A gel shift assay detects complexes by their altered migration in electrophoresis.

B1: Rad51 (natural protein, S. pombe, UniProt P36601 1-365, looked up)
chain: MADTEVEMQVSAADTNNNENGQAQSNYEYDVNVQDEEDEAAAGPMPLQMLEGNGITASDIKKIHEAGYYTVESIAYTPKRQLLLIKGISEAKADKLLGEASKLVPMGFTTATEYHIRRSELITITTGSKQLDTLLQGGVETGSITELFGEFRTGKSQICHTLAVTCQLPIDMGGGEGKCLYIDTEGTFRPVRLLAVADRYGLNGEEVLDNVAYARAYNADHQLELLQQAANMMSESRFSLLVVDSCTALYRTDFSGRGELSARQMHLARFMRTLQRLADEFGIAVVITNQVVAQVDGISFNPDPKKPIGGNILAHSSTTRLSLRKGRGEQRICKIYDSPCLPESEAIFAINSDGVGDPKEIIAPV
notes: Rad51 recombinase, Schizosaccharomyces pombe; also called SpRad51
With B1, in data set [1], the binding result is listed as “binds”. Take AGCTATGACCATGATTACGAATTGCTTGGAATCCTGACGAACTGTAG (ssDNA) [F3-d47 (47-mer ssDNA)]: in data set [2], the binding result is on record as “binds”.
